To fix the notation:
B1: AB-009637 (antibody, V domains shown)
VH: QVQLVQSGAEVKKPGSSVKVSCKASGGTFSSYAISWVRQAPGQGLEWMGGIIPILGTANYAQKFQGRVTITADKSTSTAYMELSSLRSEDTAMYYCAREGGFYGSGRNFDYWGQGTLVTVSS
VL: not shown
B2: AB-009609 (antibody, V domains shown)
VH: QVQLVQSGAEVKKPGASVKVSCKVSGYTLTELSMHWVRQAPGKGLEWMGGFDPEDAETIYAQKFQGRVTMTEDTSTDTAYMELSSLRSEDTAVYYCATALAVTGTSDSYYYYYGMDVWGQGTTVTVSS
VL: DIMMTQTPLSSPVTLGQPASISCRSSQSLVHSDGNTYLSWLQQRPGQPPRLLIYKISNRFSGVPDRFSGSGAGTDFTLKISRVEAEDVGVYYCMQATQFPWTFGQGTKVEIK
B3: AB-009275 (antibody, V domains shown)
VH: QVTLRESGPALVKPTQTLTLTCTFSGFSLSTSGMRVSWIRQPPGKALEWLARIDWDDDKFYSTSLKTRLTISKDTSKNQVVLTMTNMDPVDTATYYCARSNYDILTGRLDAFDIWGQGTMVTVSS
VL: not shown
B4: AB-009634 (antibody, V domains shown)
VH: QVTLKESGPALVKPTQTLTLTCTFSGFSLSTSGMRVSWIRQPPGKALEWLARIDWDDDKFYSTSLKTRLTISKDTSKNQVVLTMTNMDPVDTATYYCARYYYYGMDVWGQGTTVTVSS
VL: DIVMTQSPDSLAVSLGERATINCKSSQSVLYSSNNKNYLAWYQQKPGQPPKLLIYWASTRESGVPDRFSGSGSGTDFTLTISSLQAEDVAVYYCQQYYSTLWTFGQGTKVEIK
B5: AB-009280 (antibody, V domains shown)
VH: QVQLVESGGGVVQPGRSLRLSCAASGFTFSSYGMHWVRQAPGKGLEWVAVISYDGSNKYYADSVKGRFTISRDNSKNTLYLQMNSLRAEDTAVYYCAKSRGGGYYYYYMDVWGKGTTVTVSS
VL: DIQMTQSPSSLSASVGDRVTITCRASQGISNYLAWFQQKPGKAPKSLIYAASSLQSGVPSKFSGSGSGTDFTLTISSLQPEDFATYYCQQYNSYPPTFGQGTKLEIK
B6: AB-009619 (antibody, V domains shown)
VH: QVQLVQSGAEVKKPGASVKVSCKVSGYTLIELSMHWVRQAPGKGLEWMGGFDPEDGETIYAQKFQGRVTMTEDTSTDTAYMELSSLRSEDTAVYYCATGPAAATSGWFDPWGQGTLVTVSS
VL: QSALTQPASVSGSPGQSITISCTGTSSDVGGYNYVSWYQQHPGKAPKLMIYDVSNRPSGVSNRFSGSKSGNTASLTISGLQAEDEADYYCSSYTSSSTRVFGGGTKLTVL
B7: AB-009722 (antibody, V domains shown)
VH: QVQLVQSGAEVRKPGSSVKVSCNVSGGIFNSYKITWVRQAPGQGLEWMGGIIAIFGTADYAQRFQGRLSITADESTSTAYMELSSLRSDDTAVYYCTRERFSNYFDPWGQGTLVTVSS
VL: EVVLTQSPATLSLSPGERATLSCRASQSVSSFLGWYQQKPGQAPRLLIYDASNRASGIPARFSGSGSGTDFTLTISKLEPEDFAVYYCQQRSRGPSGITFGQGTRLEIK
B8: AB-009635 (antibody, V domains shown)
VH: not shown
VL: SYELTQPPSVSVSPGQTARITCSGDALPKKYAYWYQQKSGQAPVLVIYEDSKRPSGIPERFSGSSSGTMATLTISGAQVEDEADYYCYSTDSSGNHRVFGGGTKLTVL
B9: AB-009731 (antibody, V domains shown)
VH: QVQLVQSGAEVKKTGASVKLSCKASGYSLTSYAMHWVRQAPGQRLEWMGWLNGGNGNTKYSQKFQARVTITSDTSARTVYMELSSLTSEDTAVYYCARADHSTYWYGWFDPWGQGTLVTVSS
VL: QSVLTQPPSASGTPGQRVTISCSGSTSNIGSNYVFWYQQFPGTAPKLLIYRNDQRPSGVPDRFSASKAGTSASLAISGLRSEDEADYYCTSWDDSLNGPLFGGGTKLTVL
B10: AB-009646 (antibody, V domains shown)
VH: QVQLVESGGGVVQPGRSLRLSCAASGFTFSSYAMHWVRQAPGKGLEWVAVISYDGSNKYYADSVKGRFTISRDNSKNTLYLQMNSLRAEDTAVYYCARACSSTSCYKGDAFDIWGQGTMVTVSS
VL: SYELTQPPSVSVSPGQTARITCSGDALPKQYAYWYQQKPGQAPVLVIYKDSERPSGIPERFSGSSSGTTVTLTISGVQAEDEADYYCQSADSSGTYSWVFGGGTKLTVL
B11: AB-009108 (antibody, V domains shown)
VH: QVQLQESGPGLVKPSETLALTCTVSGDSIINNNFYWGWLRQPPGQGLEWIGSLFHTGSAYYNSSLKSRVRSSVDTARNQISLRLSSVTAADTAVYYCARVNIVSVPAPPGAIEGWFDPWGQGTRVTVSP
VL: SYELTQPPSVSVSLGQTARISCSGDALPTKYVHWYQQKAGQAPVVVIFRDTERPSEIPERFSGSSSGTTVTLTISGVQAEDEADYYCQSVDGSGFYVFGSGTKVTVL
B12: AB-009123 (antibody, V domains shown)
VH: QVQLLQSGAEVRKPGASVKVSCKASGYTFSSYVMHWVRQAPGQGLEWMGWINTGNGNTRYSQKIQGRVTFTIDTAANTVNMEVSSLRSEDTAVYYCAREGLRATHYFDYWGRGTLVTVSS
VL: SYELTQPPSVSVSSGQTASIPCSGDRVGDRYVCWYQQKPGQSPVLVIYQDSKRPSGIPERFSGSNSGSTATLTISGTQAIDEADYYCQAWDSSTGGVFGGGTKLTVL
B13: AB-009117 (antibody, V domains shown)
VH: ELQLVESGGGLVKPGGSLRLSCTASGFTFISYSISWVRQAPGKGLEWVSSISSYSNYIFYGDSVKGRFNISRDNPKNSVYLQLNSLRAEDTAVYYCVRDTSFYEGGGYYNRFEPWGQGTRVTVSS
VL: EIVMTQSPATLSVSPGERATLSCRASQSISINLAWYQQRPGQAPRLLIYGASTRATGIPARFSGSGSGTEFTLTISSLQSEDSAVYYCQQYNNWPPYTFGQGTTLEIK
B14: AB-009078 (antibody, V domains shown)
VH: QITLKESGPTLVKPTQTLTLTCTFSGFSLSTSGVGVGWIRQPPGKALEWLALIYWDDDKRYSPSLKSRLTITKDTSKNQVVLTMTNMDPVDTATYYCAHRPGDFWSGYYRYWGQGTLVTVSS
VL: not shown
B15: AB-009074 (antibody, V domains shown)
VH: QVQLVESGGGVVQPGRSLRLSCAASGFTFSSYGMHWVRQAPGKGLEWVAVIWYDGSNKYYADSVKGRFTISRDNSKNTLYLQMNSLRAEDTAVYYCAREGLVGATTGFDYWGQGTLVTVSS
VL: SYELTQPPSVSVSPGQTARITCSGDALPKKYAYWYQQKSGQAPVLVIYEDSKRPSGIPERFSGSSSGTMATLTISGAQVEDEADYYCYSTDSSGNHGVFGTGTKVTVL

The first experiment concerns the target SARS-CoV-2 spike S1 protein (SARS-CoV-2, UniProt P0DTC2 16-685).
B1 returned a Kd of 412 nM, a koff of 0.000174 s⁻¹ and a kon of 421 M⁻¹ s⁻¹.
For the molecule B2, binding was characterised by a dissociation constant (Kd) of 49.4 nM, the koff was found to be 0.00229 s⁻¹ and the on-rate constant (kon) was determined as 46400 M⁻¹ s⁻¹.
On the same counts, the results for B3 are 127 nM, 0.00083 s⁻¹ and 6530 M⁻¹ s⁻¹.
Taken in the same sequence, the figures for B4 were 24.8 nM, 0.000496 s⁻¹ and 20000 M⁻¹ s⁻¹.
Taken in the same sequence, the figures for B5 were 20.5 nM, 0.000536 s⁻¹ and 26200 M⁻¹ s⁻¹.
B6 displayed a Kd of 25.8 nM, a koff of 0.000726 s⁻¹ and a kon of 28100 M⁻¹ s⁻¹.
Taken in the same sequence, the figures for B7 were 41.2 nM, 0.00236 s⁻¹ and 57300 M⁻¹ s⁻¹.
On the same counts, the results for B8 are 10.5 nM, 0.000749 s⁻¹ and 71500 M⁻¹ s⁻¹.
Taken in the same sequence, the figures for B9 were 47.9 nM, 0.00294 s⁻¹ and 61400 M⁻¹ s⁻¹.
Turning to B10, binding was characterised by a dissociation constant (Kd) of 150 nM, the koff stood at 0.00231 s⁻¹ and the kon worked out at 15500 M⁻¹ s⁻¹.
As to B11, binding was characterised by a dissociation constant (Kd) of 94.3 nM, the off-rate (koff) was determined as 0.0126 s⁻¹ and the kon amounted to 134000 M⁻¹ s⁻¹.

A further experiment concerns the target SARS-CoV-2 spike S2 protein (SARS-CoV-2, UniProt P0DTC2 686-1213).
As to B12, the Kd turned out to be 18.9 nM, the dissociation rate constant (koff) amounted to 0.000802 s⁻¹ and the kon is 42500 M⁻¹ s⁻¹.
Taken in the same sequence, the figures for B13 were 11.5 nM, 0.000438 s⁻¹ and 38200 M⁻¹ s⁻¹.
On to B14, for which binding was characterised by a dissociation constant (Kd) of 0.0474 nM, the koff amounted to 2.44e-07 s⁻¹ and the kon came to 5150 M⁻¹ s⁻¹.
B15 gave a Kd of 91.3 nM, a koff of 0.0011 s⁻¹ and a kon of 12000 M⁻¹ s⁻¹.

For the origin of these results see patent US20240327505A1 (published 2024).
